In publication PMC8682488, “c-di-GMP Homeostasis Is Critical for Heterocyst Development in Anabaena sp. PCC 7120” (Frontiers in Microbiology, 2021):

T1: CdgS (Nostoc sp. PCC 7120 = FACHB-418, UniProt A0ACD7RTW6)
T1 construct: gene all2874; N-terminal REC and C-terminal GGDEF domain, two C-terminal Strep-tags (pHTwinStrep), E. coli BL21(DE3), Strep-Tactin purified
T1 sequence (A0ACD7RTW6 1-330): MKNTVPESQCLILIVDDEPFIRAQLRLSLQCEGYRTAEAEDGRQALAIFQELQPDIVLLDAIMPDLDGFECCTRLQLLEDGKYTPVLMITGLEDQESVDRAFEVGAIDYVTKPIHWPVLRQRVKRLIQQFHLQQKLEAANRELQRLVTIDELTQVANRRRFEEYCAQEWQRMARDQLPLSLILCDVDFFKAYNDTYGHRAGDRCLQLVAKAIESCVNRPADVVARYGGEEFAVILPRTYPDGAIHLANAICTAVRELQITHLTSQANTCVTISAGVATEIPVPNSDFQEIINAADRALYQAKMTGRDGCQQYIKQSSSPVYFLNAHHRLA


Legend:
CdgS = biological target: T1, CdgS; experiment: HPLC, diguanylate cyclase product formation; format: biochemical; details: DGC activity (GTP to c-di-GMP); 50 μM GTP, 2 μM protein, pH 8.0, 10 mM MgCl2, 25 °C, 30 min
[1] = substrate: Nc1nc2c(ncn2[C@@H]2O[C@H](COP(=O)(O)OP(=O)(O)OP(=O)(O)O)[C@@H](O)[C@H]2O)c(=O)[nH]1; experiment: HPLC, diguanylate cyclase steady-state kinetics; format: biochemical, Nostoc sp. PCC 7120 = FACHB-418; details: DGC activity (GTP to c-di-GMP), GGDEF domain, 50 mM Tris-HCl pH 8.0, 10 mM MgCl2, 0.5 mM EDTA, 300 mM NaCl, 25 °C
From the text: HPLC, diguanylate cyclase steady-state kinetics on CdgSH

[2] = substrate: Nc1nc2c(ncn2[C@@H]2O[C@@H]3CO[P@](=O)(O)O[C@H]4[C@@H](O)[C@H](n5cnc6c(=O)[nH]c(N)nc65)O[C@@H]4CO[P@](=O)(O)O[C@H]3[C@H]2O)c(=O)[nH]1; experiment: HPLC, c-di-GMP phosphodiesterase steady-state kinetics; format: biochemical, Nostoc sp. PCC 7120 = FACHB-418; details: PDE activity (c-di-GMP to pGpG), EAL domain, 50 mM Tris-HCl pH 8.0, 10 mM MgCl2, 0.5 mM EDTA, 300 mM NaCl, 25 °C
From the text: HPLC, c-di-GMP phosphodiesterase steady-state kinetics on CdgSH

| Molecule | HPLC, diguanylate cyclase product formation (CdgS) | Km [1] [µM] | kcat [1] [s⁻¹] | Km [2] [µM] | kcat [2] [s⁻¹] |
| --- | --- | --- | --- | --- | --- |
| Nc1nc2c(ncn2[C@@H]2O[C@H](COP(=O)(O)OP(=O)(O)OP(=O)(O)O)[C@@H](O)[C@H]2O)c(=O)[nH]1 [GTP] | CdgS could convert the substrate GTP to c-di-GMP | – | – | – | – |
| CdgSH (Nostoc sp. PCC 7120 = FACHB-418) (protein, FHA-PAS-GAF-GGDEF-EAL protein, two C-terminal Strep-tags (pHTwinStrep), E. coli BL21(DE3), Strep-Tactin purified) MPGNEWEKIRHILVVQDLQGQRTIPLQEATYSIGRHTSNAIVLHSRSVSRQHAILLRVTLPETDQCSFRIIDGNFKGQGSTNGLLVNGTRCFSHNLRHGDVINFGSHQAQAKYYAISNISEKAFFASADVEDLSTFLSELSQPVNPFQTLVVDPEFEGASETALARLASFPELIPNPIIETDLEGRVTYINPAASVKFPDLRELGKQHPILKDILNIAENPKINPFVREVTVGHAVYEQSVHNLPESDLIRTYIIRDVTEQKQAEAELHQRDRLLQAVAEAANWLVVEMNYDTAIEKALAVVGEAAQADRAYLFKNHPHPITGKRAVSLQFEWYGSDLQPSIQDWQNQLYQSTELSRWYSVLSSGKSINELRRKLPVAERELLERQGIQSLLLVPLGLEDQFWGYLGLADCTQERYWSRHEESTLLTMAASISGAWQRQQVEEKIRYQALHDLLTGLPNRLLFNELLAKALANASRSQESLAVMFLDLDRFKVINDTLGHTLGDRLLQSVAQRLRDCLRSGDTVSRWGGDEFTILLPHISYIEEVTQAACRILKALEEVFHLDGHELYVSASLGIALLDHHSPDAEALIKHADAALYHAKDEGRNNYQFYTTSLSGKTPELLTLEKSLRYALEKQELKVYYQPRVNILTGQITGMEALLRWQHPEMGIVAPSIFIPIAEETGLIIPIGEWVLRTACMQNRAWQEAGLPPVQMAVNLSPKQFRQPTLLELVSAILAETGLAPEFLELEITESTAIEDIDFTRSVLENLQQMGVDIAIDDFGTGHSSLSRLQLLPLHNLKIDGSFIKALTTDSKVAHIVKAIVTLGRSLGLRLTAEGVEKQEELDFLKSINCQDVQGFLFHKPLSAEKATEILQGEKKHATL | – | 37.2 | 0.39 | 23.5 | 1.26 |
| CdgSH (Nostoc sp. PCC 7120 = FACHB-418; D530A/E531A) (protein, FHA-PAS-GAF-GGDEF-EAL protein, two C-terminal Strep-tags (pHTwinStrep), E. coli BL21(DE3), Strep-Tactin purified) MPGNEWEKIRHILVVQDLQGQRTIPLQEATYSIGRHTSNAIVLHSRSVSRQHAILLRVTLPETDQCSFRIIDGNFKGQGSTNGLLVNGTRCFSHNLRHGDVINFGSHQAQAKYYAISNISEKAFFASADVEDLSTFLSELSQPVNPFQTLVVDPEFEGASETALARLASFPELIPNPIIETDLEGRVTYINPAASVKFPDLRELGKQHPILKDILNIAENPKINPFVREVTVGHAVYEQSVHNLPESDLIRTYIIRDVTEQKQAEAELHQRDRLLQAVAEAANWLVVEMNYDTAIEKALAVVGEAAQADRAYLFKNHPHPITGKRAVSLQFEWYGSDLQPSIQDWQNQLYQSTELSRWYSVLSSGKSINELRRKLPVAERELLERQGIQSLLLVPLGLEDQFWGYLGLADCTQERYWSRHEESTLLTMAASISGAWQRQQVEEKIRYQALHDLLTGLPNRLLFNELLAKALANASRSQESLAVMFLDLDRFKVINDTLGHTLGDRLLQSVAQRLRDCLRSGDTVSRWGGAAFTILLPHISYIEEVTQAACRILKALEEVFHLDGHELYVSASLGIALLDHHSPDAEALIKHADAALYHAKDEGRNNYQFYTTSLSGKTPELLTLEKSLRYALEKQELKVYYQPRVNILTGQITGMEALLRWQHPEMGIVAPSIFIPIAEETGLIIPIGEWVLRTACMQNRAWQEAGLPPVQMAVNLSPKQFRQPTLLELVSAILAETGLAPEFLELEITESTAIEDIDFTRSVLENLQQMGVDIAIDDFGTGHSSLSRLQLLPLHNLKIDGSFIKALTTDSKVAHIVKAIVTLGRSLGLRLTAEGVEKQEELDFLKSINCQDVQGFLFHKPLSAEKATEILQGEKKHATL | – | – | – | 31.0 | 1.78 |
| CdgSH (Nostoc sp. PCC 7120 = FACHB-418; E656A/L658A) (protein, FHA-PAS-GAF-GGDEF-EAL protein, two C-terminal Strep-tags (pHTwinStrep), E. coli BL21(DE3), Strep-Tactin purified) MPGNEWEKIRHILVVQDLQGQRTIPLQEATYSIGRHTSNAIVLHSRSVSRQHAILLRVTLPETDQCSFRIIDGNFKGQGSTNGLLVNGTRCFSHNLRHGDVINFGSHQAQAKYYAISNISEKAFFASADVEDLSTFLSELSQPVNPFQTLVVDPEFEGASETALARLASFPELIPNPIIETDLEGRVTYINPAASVKFPDLRELGKQHPILKDILNIAENPKINPFVREVTVGHAVYEQSVHNLPESDLIRTYIIRDVTEQKQAEAELHQRDRLLQAVAEAANWLVVEMNYDTAIEKALAVVGEAAQADRAYLFKNHPHPITGKRAVSLQFEWYGSDLQPSIQDWQNQLYQSTELSRWYSVLSSGKSINELRRKLPVAERELLERQGIQSLLLVPLGLEDQFWGYLGLADCTQERYWSRHEESTLLTMAASISGAWQRQQVEEKIRYQALHDLLTGLPNRLLFNELLAKALANASRSQESLAVMFLDLDRFKVINDTLGHTLGDRLLQSVAQRLRDCLRSGDTVSRWGGDEFTILLPHISYIEEVTQAACRILKALEEVFHLDGHELYVSASLGIALLDHHSPDAEALIKHADAALYHAKDEGRNNYQFYTTSLSGKTPELLTLEKSLRYALEKQELKVYYQPRVNILTGQITGMAAALRWQHPEMGIVAPSIFIPIAEETGLIIPIGEWVLRTACMQNRAWQEAGLPPVQMAVNLSPKQFRQPTLLELVSAILAETGLAPEFLELEITESTAIEDIDFTRSVLENLQQMGVDIAIDDFGTGHSSLSRLQLLPLHNLKIDGSFIKALTTDSKVAHIVKAIVTLGRSLGLRLTAEGVEKQEELDFLKSINCQDVQGFLFHKPLSAEKATEILQGEKKHATL | – | 34.8 | 0.12 | – | – |
